Numbering of substitutions follows the chain as printed.
B1: 7B1: optimized anti-PcrV mAb clone; VH SEQ ID NO: 62, VL SEQ ID NO: 67 (antibody, V domains shown)
VH: EVQLLESGGGLVQPGGSLRLSCTASGFTFSDNYMSWVRQAPGKGLDWVSVISESGGSTNYADSVKGRFSTSRDNSKSTLYLDMNSLRAEDTAIYYCAKGRFSTLSSHFFRAVYGMDVWGQGTAVTVSS
VL: DIQLTQSPSSLSASVGDRVTITCRASQGISSYLAWYQQKPGKAPKLLIYAASTLQSGVPSRFSGSGSGTDFTLTISSLQPEDFATYYCQQLSSYPLTFGGGTKVEIK
B2: 8C1: optimized anti-PcrV mAb clone; VH SEQ ID NO: 51, VL SEQ ID NO: 67 (antibody, V domains shown)
VH: B1 VH with Y33H, V50G, L104N, S106A
VL: B1 VL
B3: 7C1: optimized anti-PcrV mAb clone; VH SEQ ID NO: 52, VL SEQ ID NO: 65 (antibody, V domains shown)
VH: B1 VH with Y33H, V50G, L104S, F109Y
VL: B1 VL with T97S

Test system: P. aeruginosa (O6-57/66 strain)
Experiment: Prophylactic acute pneumonia model in immunodeficient mice, survival
Assay type: in vivo, BALB/c mice
Details: cyclophosphamide-immunosuppressed mice; 3.2 to 5 mg/kg i.p. 24 h before infection; 1*LD90; 10 days
Procedure: The ability of the optimized anti-PcrV antibodies 7C1, 7B1 and 8C1 to improve survival for acute pneumonia model in immunodeficient mice was evaluated in comparison to parental 13-42. HIV-10E8 was used as negative control. The acute pneumonia model in immunodeficient mice model was generated as described previously (DiGiandomenico et al., 2014, Sci. Transl. Med., 6: 262ra155).
In a prophylactic model, to achieve immunosuppression, 7-8 week old BALB/c mice (Vital River Laboratory) were first administered 2 doses of 150 mg/kg of cyclophosphamide, at 4 days and 1 day before P. aeruginosa infection, to suppress white cell count. Antibodies were then administered intraperitoneally (i.p.) at 24 h before infection, at doses of 3.2 to 5 mg/kg mouse weight. To induce acute pneumonia, the BALB/c mice were intranasally inoculated with P. aeruginosa (O6-57/66 strain) suspended in a 40 μl inoculum at the lethal dose (1*LD90=[…]). Mouse survival was recorded for up to 10 days post-infection.

**Q.** With B1 as the molecule, how does the “survival improvement / protection relative to parental 13-42 antibody” value read?
**A.** Its value is “comparable or better protection than the parental 13-42 antibody”.

**Q.** Which “survival improvement / protection relative to parental 13-42 antibody” value does the source give for B2 here?
**A.** The value was “comparable or better protection than the parental 13-42 antibody”.

**Q.** Which “survival improvement / protection relative to parental 13-42 antibody” value does the source give for B3 here?
**A.** The value was “better survival improvement than the parental 13-42 antibody”.

Test system: BV particles
Experiment: Cross-reactivity to BV particles by ELISA
Assay type: binding
Details: FIG. 3
Procedure: Cross-reactivity to BV particles: Using ELISA, optimized antibodies 7C1, 7B1, 8C1, 6D10, and reference antibodies V2L2-MD and Mab166 were tested for cross-reactivity to BV particles according to the method described previously (See Hötzel I, et al, 2012, mAbs 4:6, 753-760).

**Q.** Which “non-specific binding to BV particles” value does the source give for B1 here?
**A.** Its value is “low levels of non-specific binding”.

**Q.** Which “non-specific binding to BV particles” value does the source give for B2 here?
**A.** Its value is “low levels of non-specific binding”.

**Q.** With B3 as the molecule, how does the “non-specific binding to BV particles” value read?
**A.** Its value is “low levels of non-specific binding”.

Test system: not given
Experiment: not given
Details: rat, in vivo, iv
Procedure: Pharmacokinetic profile in rat: 40 healthy adult rats (about 0.2 kg by weight) were equally into two groups, where each group registered similar average weight. One group was injected intravenously with 30 mg/kg of V2L2-MD, 7C1, 7B1, 8C1 or 6D10 and the other group was injected intravenously with 3 mg/kg of V2L2-MD, 7C1, 7B1, 8C1 or 6D10. Blood was collected at […], and subsequently at 0 hour, 0.5 hour, 2 hour, 8 hour, 1 day, 3 days, 7 days, 11 days, 17 days, 23 days, 31 days, 41 days and 52 days after injection. After centrifugation, the plasma was used for analyzing antibody concentration using ELISA. For the ELISA experiment, synthetic PcrV was used to coat the wells of a 96-well plate. On the following day, after washing with PBST, blocking with 200 μL PBS-milk for an hour, and another wash with PBST, the plasma was added and incubated for an hour at 37° C. The plate was washed with 0.1% TBST for 6 times before 100 μL of Goat-anti-human Fc antibody-AP (1:3000 in PBS) was added to each well and incubated for an hour. After washing with 0.1% TBST for 6 times, 50 μL of pNPP was added to each well and color was developed for 10-20 minutes at 37° C. The signals were read by a microplate reader at 410 nm.

**Q.** For B1, which “half-lives relative to reference antibody V2L2-MD” value is on record?
**A.** The value was “comparable to or longer than that of reference antibody V2L2-MD”.

**Q.** For B2, which “half-lives relative to reference antibody V2L2-MD” value is on record?
**A.** The value was “comparable to or longer than that of reference antibody V2L2-MD”.

**Q.** Which “half-lives relative to reference antibody V2L2-MD” value does the source give for B3 here?
**A.** The value was “comparable to or longer than that of reference antibody V2L2-MD”.

Test system: P. aeruginosa (PA103 strain)
Experiment: Therapeutic mouse acute pneumonia model, survival
Assay type: in vivo, BALB/c mice
Details: i.v. 1 h post-infection, 1 mg/kg or 10 mg/kg; 1*LD90; 6 days
Procedure: In a therapeutic model, to induce acute pneumonia, 7-8 week old BALB/c mice (Vital River Laboratory) were intranasally inoculated with P. aeruginosa (PA103 strain) suspended in a 40 μl inoculum at a lethal dose (1*LD90=8×10^5 CFU). Antibodies or PBS were administered intravenously (i.v.) at 1 h post-infection, at a dose of 1 mg/kg or 10 mg/kg mouse weight. Mouse survival was recorded for up to 6 days post-infection.

**Q.** For B1, which “survival improvement relative to V2L2-MD” value is on record?
**A.** The value was “survival improvement comparable to that of V2L2-MD”.

**Q.** For B2, which “survival improvement relative to V2L2-MD” value is on record?
**A.** Its value is “survival improvement comparable to that of V2L2-MD”.

**Q.** Which “survival improvement relative to V2L2-MD” value does the source give for B3 here?
**A.** Its value is “survival improvement comparable to that of V2L2-MD”.

Test system: PcrV
Experiment: BIACORE binding to PcrV
Parameters: species or system Pseudomonas aeruginosa
Details: data not shown
Procedure: The association constant (ka), dissociation constant (kd) and the equilibrium dissociation constant (kD) for binding of optimized anti-PcrV mAb clones 7B1, 7C1, 8C1, 6D10 and reference antibody V2L2-MD to PcrV were tested by BIACORE (GE company).

**Q.** With B1 as the molecule, how does the “association and dissociation kinetics in PcrV binding (ka and kd values)” value (from here on “association and dissociation kinetics”) read?
**A.** Its value is “comparable association and dissociation kinetics”.

**Q.** Which “association and dissociation kinetics” value does the source give for B2 here?
**A.** The value was “comparable association and dissociation kinetics”.

**Q.** For B3, which “association and dissociation kinetics” value is on record?
**A.** Its value is “comparable association and dissociation kinetics”.

Test system: P. aeruginosa strains O1-52/66, O16-177/81, and O6-57/66
Experiment: RBC lysis inhibition assay, various strains (average)
Assay type: cell-based, Pseudomonas aeruginosa
Details: FIGS. 5A-5C
Procedure: Monoclonal scFv antibodies were selected and assessed for biological activity by RBC lysis assay. Briefly, red blood cells (RBCs) were prepared from fresh whole human or rabbit blood by centrifugation, supplemented with EDTA and rinsed with multiple phosphate-buffered saline (PBS) washes. Washed RBCs (2.5% [vol/vol] final) in Dulbecco's modified Eagle's medium (DMEM) plus 10% fetal bovine serum (FBS) (Gibco) and purified anti-PcrV antibodies diluted in PBS were combined into wells of a round-bottom 96-well plate. Strain 57/66(O6) P. aeruginosa was grown to mid-log phase in 2× YT medium (Oxford), harvested by centrifugation, and resuspended in DMEM-fetal bovine serum (FBS) at an optical density at 600 nm (OD600) of 0.15. Ten microliters of bacterial suspension was added to the RBC-antibody mixture, mixed by agitation, and incubated for 3 hours at 37° C. and 5% CO2. The plates were briefly centrifuged (1000 rpm, 1 min) to pellet the intact RBCs, the supernatants transferred to a flat-bottom 96-well plate, and the OD405 was measured to detect any lysis, from which the relative amount of lysis inhibition was calculated and plotted. IC50 values for the antibodies were also determined.
The optimized anti-PcrV mAb clones 7C1, 8C1, and 7B1 were further analyzed for their abilities to inhibit red blood cell lysis by various strains of P. aeruginosa, namely strains O1-52/66, O16-177/81, and O6-57/66, as compared to the parental 13-42 mAb and the reference antibody V2L2-MD. RBC lysis inhibition assay was performed as described in Example 1.

**Q.** Which “efficacy in inhibiting RBC lysis by strains O1-52/66, O16-177/81, O6-57/66 relative to V2L2-MD or parental 13-42 mAb” value does the source give for B1 here?
**A.** The value was “better efficacy in inhibiting RBC lysis”.

**Q.** For B2, which “efficacy in inhibiting RBC lysis by strains O1-52/66, O16-177/81, O6-57/66 relative to V2L2-MD or parental 13-42 mAb” value is on record?
**A.** Its value is “better efficacy in inhibiting RBC lysis”.

**Q.** With B3 as the molecule, how does the “efficacy in inhibiting RBC lysis by strains O1-52/66, O16-177/81, O6-57/66 relative to V2L2-MD or parental 13-42 mAb” value read?
**A.** Its value is “better efficacy in inhibiting RBC lysis”.

Test system: P. aeruginosa (PA103 strain)
Experiment: Prophylactic mouse acute pneumonia model, organ burden
Assay type: in vivo, BALB/c mice
Details: 10 mg/kg i.p. 24 hr before infection; 0.5*LD90; FIG. 8B
Procedure: In a prophylactic model, 7-8 week old BALB/c mice (Vital River Laboratory) were administered with antibodies or PBS intraperitoneally (i.p.) 24 hr before infection, at 10 mg/kg mouse weight. To induce acute pneumonia, the BALB/c mice were intranasally inoculated with P. aeruginosa (PA103 strain) suspended in a 40 μl inoculum at half the lethal dose (0.5*LD90; 3×10^5 CFU). 24 hours post-infection, mice were euthanized, where the lungs, spleens and kidneys were extracted, homogenized and diluted before plating on agar to measure the viable bacteria units (in CFU), which represented the P. aeruginosa burden in the respective organ sample.

**Q.** Which results are given for B1?
**A.** reduction of organ burden in the lung, spleen and kidney relative to HIV-10E8: higher efficacy in reducing organ burden; reduction of organ burden in the lung, spleen and kidney relative to V2L2-MD: comparable efficacy in reducing organ burden

**Q.** What does the source list for B2?
**A.** reduction of organ burden in the lung, spleen and kidney relative to HIV-10E8: higher efficacy in reducing organ burden; reduction of organ burden in the lung, spleen and kidney relative to V2L2-MD: comparable efficacy in reducing organ burden

**Q.** What does the source list for B3?
**A.** reduction of organ burden in the lung, spleen and kidney relative to HIV-10E8: higher efficacy in reducing organ burden; reduction of organ burden in the lung, spleen and kidney relative to V2L2-MD: comparable efficacy in reducing organ burden
